These are literature values, as cited in PMC10746543, “Design principles for cyclin K molecular glue degraders” (Nature Chemical Biology, 2023).

For this data set, the target named is CDK12-cyclin K (Homo sapiens) (UniProt Q9NYV4).
Chain of CDK12-cyclin K (Homo sapiens) (Q9NYV4 whole entry, chain 1 of 2): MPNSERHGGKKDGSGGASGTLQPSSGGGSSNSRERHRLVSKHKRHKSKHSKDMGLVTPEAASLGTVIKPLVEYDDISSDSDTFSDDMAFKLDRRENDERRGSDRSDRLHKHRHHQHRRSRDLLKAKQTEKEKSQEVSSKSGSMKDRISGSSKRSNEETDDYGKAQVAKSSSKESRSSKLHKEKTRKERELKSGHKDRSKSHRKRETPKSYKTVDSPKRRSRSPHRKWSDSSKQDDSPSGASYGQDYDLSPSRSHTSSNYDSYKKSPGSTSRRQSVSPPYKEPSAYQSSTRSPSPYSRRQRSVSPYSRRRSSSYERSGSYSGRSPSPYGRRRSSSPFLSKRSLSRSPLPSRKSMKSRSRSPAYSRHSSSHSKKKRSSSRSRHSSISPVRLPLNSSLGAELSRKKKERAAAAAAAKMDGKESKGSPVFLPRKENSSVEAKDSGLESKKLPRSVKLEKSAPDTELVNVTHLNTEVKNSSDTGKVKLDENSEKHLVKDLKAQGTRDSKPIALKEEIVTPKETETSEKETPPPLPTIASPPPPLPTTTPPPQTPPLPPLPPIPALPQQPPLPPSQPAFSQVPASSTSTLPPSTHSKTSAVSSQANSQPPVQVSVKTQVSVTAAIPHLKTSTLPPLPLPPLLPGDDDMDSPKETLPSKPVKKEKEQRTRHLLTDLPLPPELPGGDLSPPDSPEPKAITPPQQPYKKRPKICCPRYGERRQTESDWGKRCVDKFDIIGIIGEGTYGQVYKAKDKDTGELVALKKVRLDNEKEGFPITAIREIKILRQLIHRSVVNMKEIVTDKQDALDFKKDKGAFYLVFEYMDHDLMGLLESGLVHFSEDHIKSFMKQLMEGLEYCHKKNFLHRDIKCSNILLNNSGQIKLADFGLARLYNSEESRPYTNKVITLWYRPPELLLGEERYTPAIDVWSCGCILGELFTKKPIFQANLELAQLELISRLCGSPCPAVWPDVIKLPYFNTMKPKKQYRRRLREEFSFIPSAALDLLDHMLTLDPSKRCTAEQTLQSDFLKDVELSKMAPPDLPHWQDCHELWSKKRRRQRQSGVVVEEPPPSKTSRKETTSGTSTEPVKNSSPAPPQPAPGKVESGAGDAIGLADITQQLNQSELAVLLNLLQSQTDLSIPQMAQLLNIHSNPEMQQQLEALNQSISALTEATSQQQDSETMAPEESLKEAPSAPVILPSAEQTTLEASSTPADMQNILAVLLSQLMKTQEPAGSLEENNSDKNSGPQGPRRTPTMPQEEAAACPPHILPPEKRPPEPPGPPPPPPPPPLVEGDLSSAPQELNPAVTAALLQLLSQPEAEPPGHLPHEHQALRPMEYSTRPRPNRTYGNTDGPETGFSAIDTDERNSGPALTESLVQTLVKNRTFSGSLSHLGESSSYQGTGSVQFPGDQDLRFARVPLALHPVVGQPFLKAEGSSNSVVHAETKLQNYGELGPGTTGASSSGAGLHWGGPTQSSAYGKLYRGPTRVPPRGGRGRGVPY
Chain of CDK12-cyclin K (Homo sapiens) (O75909 whole entry, chain 2 of 2, further chain): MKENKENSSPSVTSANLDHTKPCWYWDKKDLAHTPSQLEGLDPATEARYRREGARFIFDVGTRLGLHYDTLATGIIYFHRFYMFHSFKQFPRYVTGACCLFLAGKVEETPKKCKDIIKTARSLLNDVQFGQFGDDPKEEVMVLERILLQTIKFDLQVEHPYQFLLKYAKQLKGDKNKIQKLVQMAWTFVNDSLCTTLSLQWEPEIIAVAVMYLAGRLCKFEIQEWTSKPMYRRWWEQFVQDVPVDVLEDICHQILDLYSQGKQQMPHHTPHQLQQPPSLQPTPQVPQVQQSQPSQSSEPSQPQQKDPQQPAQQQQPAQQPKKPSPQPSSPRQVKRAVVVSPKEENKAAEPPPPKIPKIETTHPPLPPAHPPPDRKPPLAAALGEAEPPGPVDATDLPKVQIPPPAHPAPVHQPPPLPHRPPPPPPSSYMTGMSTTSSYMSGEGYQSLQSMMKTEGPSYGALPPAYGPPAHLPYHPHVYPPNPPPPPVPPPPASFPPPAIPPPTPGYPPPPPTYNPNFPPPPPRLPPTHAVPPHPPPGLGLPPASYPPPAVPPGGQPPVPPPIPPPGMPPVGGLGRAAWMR

Chain of DDB1 (Q16531 2-1140): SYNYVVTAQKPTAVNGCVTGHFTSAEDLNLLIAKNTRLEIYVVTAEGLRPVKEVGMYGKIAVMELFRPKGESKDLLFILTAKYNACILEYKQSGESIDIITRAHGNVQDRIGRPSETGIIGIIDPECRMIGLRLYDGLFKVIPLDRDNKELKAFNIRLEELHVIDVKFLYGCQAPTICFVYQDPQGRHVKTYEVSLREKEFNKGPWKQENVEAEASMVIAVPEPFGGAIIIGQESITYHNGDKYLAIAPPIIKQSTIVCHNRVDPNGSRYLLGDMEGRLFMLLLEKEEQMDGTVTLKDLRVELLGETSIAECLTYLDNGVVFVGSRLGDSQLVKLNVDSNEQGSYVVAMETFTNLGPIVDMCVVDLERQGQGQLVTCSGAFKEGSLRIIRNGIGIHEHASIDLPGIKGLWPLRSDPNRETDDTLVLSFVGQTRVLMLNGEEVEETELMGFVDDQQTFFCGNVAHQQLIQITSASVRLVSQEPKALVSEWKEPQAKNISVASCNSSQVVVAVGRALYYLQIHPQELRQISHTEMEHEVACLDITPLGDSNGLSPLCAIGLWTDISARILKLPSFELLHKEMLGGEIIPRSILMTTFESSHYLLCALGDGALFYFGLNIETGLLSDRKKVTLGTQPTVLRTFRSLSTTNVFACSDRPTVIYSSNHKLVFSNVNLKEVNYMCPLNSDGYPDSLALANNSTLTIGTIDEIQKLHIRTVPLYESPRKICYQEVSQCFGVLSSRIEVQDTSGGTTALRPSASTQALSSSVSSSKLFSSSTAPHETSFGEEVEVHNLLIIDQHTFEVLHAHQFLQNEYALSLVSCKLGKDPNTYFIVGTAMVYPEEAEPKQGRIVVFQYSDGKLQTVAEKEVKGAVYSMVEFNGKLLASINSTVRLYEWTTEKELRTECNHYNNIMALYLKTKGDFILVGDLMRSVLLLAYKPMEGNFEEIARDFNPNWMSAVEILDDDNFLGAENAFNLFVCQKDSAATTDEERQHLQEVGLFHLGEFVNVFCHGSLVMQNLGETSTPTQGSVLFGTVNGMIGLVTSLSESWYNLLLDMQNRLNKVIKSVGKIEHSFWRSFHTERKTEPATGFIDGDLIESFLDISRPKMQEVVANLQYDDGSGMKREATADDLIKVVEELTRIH

In the case of DDB1 (from UniProt Q16531), the dissociation constant (Kd) (usually the equilibrium constant for the complex coming apart) is 50 µM.
